Positions count from the first letter of the chain named. Names may count otherwise. Blank lines part the entries; values can stand above or below the binder they belong to.
Tests used:
human CTLA-4 [1] = target: T1, human CTLA-4 (human, UniProt P16410 36-223); test: flow cytometry on CHO cells stably expressing CTLA4
T1 construct: also called huCTLA4
T1 sequence (P16410 36-223): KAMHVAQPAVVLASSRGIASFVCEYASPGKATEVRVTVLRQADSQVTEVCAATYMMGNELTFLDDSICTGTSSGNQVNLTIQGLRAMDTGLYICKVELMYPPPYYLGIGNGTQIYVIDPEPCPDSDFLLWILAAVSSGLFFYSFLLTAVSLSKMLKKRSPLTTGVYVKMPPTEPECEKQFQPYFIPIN

human CD28 [2] = target: T2, human CD28 (human, UniProt P10747 19-220); test: flow cytometry on Jurkat cells (CD28); vs CD80 WT IgV-Fc
T2 construct: Endogenous CD28 on Jurkat/IL2 reporter cells

human PD-L1 [3] = target: T3, human PD-L1 (human, UniProt Q9NZQ7 19-290); test: cell-based or functional assay
T3 sequence (Q9NZQ7 19-290): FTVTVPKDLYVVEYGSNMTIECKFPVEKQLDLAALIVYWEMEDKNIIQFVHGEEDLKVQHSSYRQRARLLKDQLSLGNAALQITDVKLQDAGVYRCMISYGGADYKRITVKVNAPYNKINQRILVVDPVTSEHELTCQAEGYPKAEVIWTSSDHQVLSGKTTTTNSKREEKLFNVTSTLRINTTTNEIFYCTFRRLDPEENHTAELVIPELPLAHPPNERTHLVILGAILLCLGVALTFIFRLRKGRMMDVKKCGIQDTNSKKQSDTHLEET

human PD-L1 [4] = target: T3, human PD-L1; test: flow cytometry on CHO cells stably expressing PD-L1
human PD-L1 [5] = target: T3, human PD-L1; test: flow cytometry on CHO cells stably expressing PD-L1; vs CD80 WT IgV-Fc
human CTLA-4 [6] = target: T1, human CTLA-4; test: flow cytometry on CHO cells stably expressing CTLA4; vs CD80 WT IgV-Fc
human CD28 [7] = target: T2, human CD28; test: flow cytometry on Jurkat cells (CD28)
human PD-L1 [8] = target: T3, human PD-L1; test: flow cytometry; PD-L1 MFI over CD28 MFI
human CD28 [9] = target: T4, human CD28 (human, UniProt P10747 19-220); test: flow cytometry, Jurkat/IL2 reporter cells (endogenous CD28), 33.3 nM, PE anti-human Fc
T4 construct: whole, on cells; Endogenous CD28 of Jurkat/IL2 reporter cells

human PD-L1 [10] = target: T5, human PD-L1 (human, UniProt Q9NZQ7 19-290); test: flow cytometry, CHO cells stably expressing huPD-L1, 33.3 nM, PE anti-human Fc
T5 construct: whole, on cells; also called huPD-L1
T5 sequence (Q9NZQ7 19-290): as above

human PD-L1 [11] = target: T5, human PD-L1; test: flow cytometry; MFI on CHO/PD-L1 over MFI on Jurkat (CD28), 33.3 nM
human CTLA-4 [12] = target: T6, human CTLA-4 (human, UniProt P16410 36-223); test: flow cytometry, CHO cells stably expressing huCTLA4, 33.3 nM, PE anti-human Fc
T6 construct: whole, on cells; also called huCTLA4
T6 sequence (P16410 36-223): as the sequence (P16410 36-223) above

[13] = target: T7, CD28, endogenously expressed on Jurkat/IL2 reporter cells (human, UniProt P10747 19-220); test: flow cytometry, Jurkat/IL2 reporter cells (endogenous CD28)
T7 construct: whole, on cells

[14] = target: T8, human CTLA4 (huCTLA4), full-length, stably expressed on CHO cells (human, UniProt P16410 36-223); test: flow cytometry, CHO cells expressing huCTLA4; MFI against WT CD80 of the table
T8 construct: whole, on cells
T8 sequence (P16410 36-223): as above

[15] = target: T9, human PD-L1 (huPD-L1), full-length, stably expressed on CHO cells (human, UniProt Q9NZQ7 19-290); test: flow cytometry, CHO cells expressing huPD-L1
T9 construct: whole, on cells
T9 sequence (Q9NZQ7 19-290): as the sequence (Q9NZQ7 19-290) above

[16] = target: T9, human PD-L1 (huPD-L1), full-length, …; test: flow cytometry, CHO cells expressing huPD-L1; MFI against WT CD80 of the table
[17] = target: T9, human PD-L1 (huPD-L1), full-length, …; test: flow cytometry; MFI on PD-L1 CHO cells over MFI on Jurkat cells (CD28)
[18] = target: T8, human CTLA4 (huCTLA4), full-length, …; test: flow cytometry, CHO cells expressing huCTLA4
[19] = target: T7, CD28, endogenously expressed on …; test: flow cytometry, Jurkat/IL2 reporter cells (endogenous CD28); MFI against WT CD80 of the table

B2: CD80 E35D/M47V/N48K/V68M/K89N IgV-Fc, EAAAK linker (Fc fusion, not shown: a dimerising Fc or GST)
chain: VIHVTKEVKEVATLSCGHNVSVEELAQTRIYWQKDKKMVLTMMSGDVKIWPEYKNRTIFDITNNLSIMILALRPSDEGTYECVVLKYENDAFKREHLAEVTLSVKADEAAAK
MFI at 33.3 nM (human CTLA-4 [1]): 27500 MFI
Fold change to WT CD80 (human CD28 [2]): 47.1 fold
Fold Increase over WT CD80-IgV-Fc, Jurkat/IL2 + CHO/OKT3/PD-L1 Reporter Assay (human PD-L1 [3]): 4.38 fold
RLU, Jurkat/IL2 + CHO/OKT3/PD-L1 Reporter Assay, CD80 Conc 5.0 nM (human PD-L1 [3]): 1710 RLU
MFI at 33.3 nM (human PD-L1 [4]): 22900 MFI
Fold change to WT CD80 (human PD-L1 [5]): 491 fold
Fold change to WT CD80 (human CTLA-4 [6]): 23 fold
MFI at 33.3 nM (human CD28 [7]): 2630 MFI
Ratio of PDL1:CD28 (human PD-L1 [8]): 9 ratio

B3: CD80 E35D/D46V/M47L/V68M/L85Q/E88D IgV-Fc, EAAAK linker (Fc fusion, not shown: a dimerising Fc or GST)
chain: B2 chain with D46V, V47L, K48N, L85Q, E88D, N89K
MFI at 33.3 nM (human CTLA-4 [1]): 29000 MFI
Fold change to WT CD80 (human CD28 [2]): 10.1 fold
Fold Increase over WT CD80-IgV-Fc, Jurkat/IL2 + CHO/OKT3/PD-L1 Reporter Assay (human PD-L1 [3]): 3.75 fold
RLU, Jurkat/IL2 + CHO/OKT3/PD-L1 Reporter Assay, CD80 Conc 5.0 nM (human PD-L1 [3]): 1460 RLU
MFI at 33.3 nM (human PD-L1 [4]): 24800 MFI
Fold change to WT CD80 (human PD-L1 [5]): 533 fold
Fold change to WT CD80 (human CTLA-4 [6]): 24.2 fold
MFI at 33.3 nM (human CD28 [7]): 563 MFI
Ratio of PDL1:CD28 (human PD-L1 [8]): 44 ratio

B4: CD80 E35D/D46V/M47L/V68M/L85Q/E88D IgV-Fc, (EAAAK)3 linker (Fc fusion, not shown: a dimerising Fc or GST)
chain: VIHVTKEVKEVATLSCGHNVSVEELAQTRIYWQKDKKMVLTMMSGVLNIWPEYKNRTIFDITNNLSIMILALRPSDEGTYECVVQKYDKDAFKREHLAEVTLSVKADEAAAKEAAAKEAAAK
MFI at 33.3 nM (human CTLA-4 [1]): 32000 MFI
Fold change to WT CD80 (human CD28 [2]): 3.5 fold
Fold Increase over WT CD80-IgV-Fc, Jurkat/IL2 + CHO/OKT3/PD-L1 Reporter Assay (human PD-L1 [3]): 5.25 fold
RLU, Jurkat/IL2 + CHO/OKT3/PD-L1 Reporter Assay, CD80 Conc 5.0 nM (human PD-L1 [3]): 2050 RLU
MFI at 33.3 nM (human PD-L1 [4]): 25500 MFI
Fold change to WT CD80 (human PD-L1 [5]): 546 fold
Fold change to WT CD80 (human CTLA-4 [6]): 26.8 fold
MFI at 33.3 nM (human CD28 [7]): 197 MFI
Ratio of PDL1:CD28 (human PD-L1 [8]): 129 ratio

B5: E24D/Q27R/E35D/T41S/M47V/L85Q CD80 IgV-Fc (Fc fusion, not shown: a dimerising Fc or GST)
chain: VIHVTKEVKEVATLSCGHNVSVEDLARTRIYWQKDKKMVLSMMSGDVNIWPEYKNRTIFDITNNLSIVILALRPSDEGTYECVVQKYEKDAFKREHLAEVTLSVKAD
Fold change to WT (human CD28 [9]): 1.6 fold
MFI at 33.3 nM (human CD28 [9]): 66 MFI
Fold change to WT (human PD-L1 [10]): 34.3 fold
MFI at 33.3 nM (human PD-L1 [10]): 2860 MFI
Ratio of PDL1:CD28 (human PD-L1 [11]): 44 ratio
Fold change to WT CD80 (human CTLA-4 [12]): 13.5 fold
MFI at 33.3 nM (human CTLA-4 [12]): 13900 MFI

Continued, values first:

MFI at 33.3 nM (human CTLA-4 [1]): 26600 MFI
Fold change to WT CD80 (human CD28 [2]): 2.6 fold
Fold Increase over WT CD80-IgV-Fc, Jurkat/IL2 + CHO/OKT3/PD-L1 Reporter Assay (human PD-L1 [3]): 5.26 fold
RLU, Jurkat/IL2 + CHO/OKT3/PD-L1 Reporter Assay, CD80 Conc 5.0 nM (human PD-L1 [3]): 2050 RLU
MFI at 33.3 nM (human PD-L1 [4]): 22400 MFI
Fold change to WT CD80 (human PD-L1 [5]): 481 fold
Fold change to WT CD80 (human CTLA-4 [6]): 22.2 fold
MFI at 33.3 nM (human CD28 [7]): 143 MFI
Ratio of PDL1:CD28 (human PD-L1 [8]): 157 ratio
B1: CD80 E35D/D46V/M47L/V68M/L85Q/E88D IgV-Fc, GS(G4S)5 linker (Fc fusion, not shown: a dimerising Fc or GST)
chain: VIHVTKEVKEVATLSCGHNVSVEELAQTRIYWQKDKKMVLTMMSGVLNIWPEYKNRTIFDITNNLSIMILALRPSDEGTYECVVQKYDKDAFKREHLAEVTLSVKADGSGGGGSGGGGSGGGGSGGGGSGGGGS

MFI at 33.3 nM [13]: 257 MFI
Fold change to WT CD80 [14]: 9 fold
MFI at 33.3 nM [15]: 12900 MFI
Fold change to WT CD80 [16]: 250 fold
Ratio of PDL1:CD28 [17]: 50.1 ratio
MFI at 33.3 nM [18]: 15800 MFI
Fold change to WT CD80 [19]: 8.2 fold
B6: variant CD80 IgV-Fc H18Y/V22D/E35D/M47V/N48K/V68M (Fc fusion, not shown: small tags and cut ends; a dimerising Fc or GST)
chain: B5 chain with H18Y, V22D, D24E, R27Q, S41T, N48K, V68M, Q85L

MFI at 33.3 nM [13]: 245 MFI
Fold change to WT CD80 [14]: 8.9 fold
MFI at 33.3 nM [15]: 7620 MFI
Fold change to WT CD80 [16]: 148 fold
Ratio of PDL1:CD28 [17]: 31.1 ratio
MFI at 33.3 nM [18]: 15600 MFI
Fold change to WT CD80 [19]: 7.8 fold
B7: variant CD80 IgV-Fc E35D/M47V/N48K/V68M/L85M (Fc fusion, not shown: small tags and cut ends; a dimerising Fc or GST)
chain: B5 chain with D24E, R27Q, S41T, N48K, V68M, Q85M

MFI at 33.3 nM [13]: 1040 MFI
Fold change to WT CD80 [14]: 9.3 fold
MFI at 33.3 nM [15]: 14900 MFI
Fold change to WT CD80 [16]: 290 fold
Ratio of PDL1:CD28 [17]: 14.3 ratio
MFI at 33.3 nM [18]: 16300 MFI
Fold change to WT CD80 [19]: 33.2 fold
B8: variant CD80 IgV-Fc H18Y/E35D/V68M/T79M/L85M (Fc fusion, not shown: small tags and cut ends; a dimerising Fc or GST)
chain: B5 chain with H18Y, D24E, R27Q, S41T, V47M, V68M, T79M, Q85M

From patent publication US20210130436A1 (published 2021)
